Article PMC3852661, “Structural basis of SUFU–GLI interaction in human Hedgehog signalling regulation” (Acta Crystallographica Section D: Biological Crystallography, 2013)
Where no end group is shown, it is not given here. The star is where a group is joined. 5FAM = O=C1OC2(c3ccc(O)cc3Oc3cc(O)ccc32)c2ccc(C(=O)*)cc21

T1: MBP_(A216H_K220H)-SUFU-Δ_(W61D_L62S_G63F_P453A_Δ454–456_K457A) (human, UniProt Q9UMX1 32-278; Q9UMX1 361-483, W61D | L62S | G63F | P453A | Δ454–456 | K457A)
T1 construct: human SUFU, residues 32-278, WLG61-63 mutated to DSF; heptamer that replaces amino acids 279-360 (the IDR), as in MBP-SUFU-Δ; human SUFU, residues 361-483, a flexible loop shortened; Derived from MBP-SUFU-Δ; residues 216 and 220 of the MBP moiety mutated to histidine; crystallised with zinc acetate and maltose; source: E. coli JM109 (DE3), purified (HisTrap, SEC); not shown: MBP (A216H, K220H), …
T1 sequence: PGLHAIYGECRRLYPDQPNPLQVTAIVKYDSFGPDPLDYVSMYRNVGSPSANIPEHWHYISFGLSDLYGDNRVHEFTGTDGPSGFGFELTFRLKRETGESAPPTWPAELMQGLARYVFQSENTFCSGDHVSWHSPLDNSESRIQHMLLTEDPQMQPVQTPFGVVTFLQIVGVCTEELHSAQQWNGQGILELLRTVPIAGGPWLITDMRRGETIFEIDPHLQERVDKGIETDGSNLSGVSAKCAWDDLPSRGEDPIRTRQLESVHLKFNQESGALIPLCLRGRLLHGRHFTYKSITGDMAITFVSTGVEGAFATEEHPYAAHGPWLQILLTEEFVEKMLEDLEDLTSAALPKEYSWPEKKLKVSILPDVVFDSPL

B1: MBP-SUFU-FL (domain or fragment, human, UniProt Q9UMX1 32-483, looked up)
chain: PGLHAIYGECRRLYPDQPNPLQVTAIVKYWLGGPDPLDYVSMYRNVGSPSANIPEHWHYISFGLSDLYGDNRVHEFTGTDGPSGFGFELTFRLKRETGESAPPTWPAELMQGLARYVFQSENTFCSGDHVSWHSPLDNSESRIQHMLLTEDPQMQPVQTPFGVVTFLQIVGVCTEELHSAQQWNGQGILELLRTVPIAGGPWLITDMRRGETIFEIDPHLQERVDKGIETDGSNLSGVSAKCAWDDLSRPPEDDEDSRSICIGTQPRRLSGKDTEQIRETLRRGLEINSKPVLPPINPQRQNGLAHDRAPSRKDSLESDSSTAIIPHELIRTRQLESVHLKFNQESGALIPLCLRGRLLHGRHFTYKSITGDMAITFVSTGVEGAFATEEHPYAAHGPWLQILLTEEFVEKMLEDLEDLTSPEEFKLPKEYSWPEKKLKVSILPDVVFDSPL
notes: human SUFU (Suppressor of fused), residues 32-483, called essentially full length; MBP is joined to SUFU by a three-alanine linker; vector pLJMBP4c (Monné et al., 2008); also called SUFU_(32–483); source: E. coli JM109 (DE3), purified (HisTrap, SEC); not shown: MBP, N-terminal, kept
B2: GLI1p (peptide, UniProt P08151 115-131, looked up)
peptide: TSPGGSYGHLSIGTMSP
notes: human GLI1, residues 115-131, holds the SYGH motif; also called human GLI1-derived peptide; source: synthetic peptide (Dr W. Mawby, University of Bristol)

Legend:
Conditions in all cases: both partners purified
[1] = molecular target: B2; test: thermal stability assay (SYPRO Orange); 2.2 µM MBP-SUFU protein with 44 µM peptide; 50 mM Na HEPES pH 7.0, 50 mM NaCl, 5 mM β-mercaptoethanol; heated from 20 to 90°C; triplicate
[2] = molecular target: B1; test: MST; 50 nM FAM-GLI1p, MBP-SUFU constructs titrated (14.2–29 070 and 54–110 500 nM); 50 mM Tris–HCl pH 7.6, 150 mM NaCl, 10 mM MgCl2, 0.05% Tween-20; three independent measurements
[3] = molecular target: T1, MBP_(A216H_K220H)-SUFU-Δ_(W61D_L62S_G63F …); test: crystal structure; co-crystals of the MBP-SUFU-Δ variant with zinc acetate (1:1) and GLI1p or GLI3p (1:4); hanging drop, 4°C, PEG 3350, sodium formate
[4] = molecular target: B1; test: HDX-MS; MBP-SUFU-FL with a 5.5-fold excess of GLI3p, incubated 1 h; exchange 300, 600 and 1800 s at 4°C; 50 mM Na HEPES pH 7.0, 50 mM NaCl, 5 mM β-mercaptoethanol, 1.5 mM maltose

binding result [3] | Binder | Tm shift on addition of GLI1p [1] [°C] | also measured
– | MBP-SUFU-Δ (domain or fragment, human, human SUFU, residues 32-278; heptamer that replaces amino acids 279-360 (the IDR); human SUFU, residues 361-483; Same frame as MBP-SUFU-FL (three-alanine linker after MBP); source: E. coli JM109 (DE3), purified (HisTrap, SEC); not shown: MBP, N-terminal, kept) PGLHAIYGECRRLYPDQPNPLQVTAIVKYWLGGPDPLDYVSMYRNVGSPSANIPEHWHYISFGLSDLYGDNRVHEFTGTDGPSGFGFELTFRLKRETGESAPPTWPAELMQGLARYVFQSENTFCSGDHVSWHSPLDNSESRIQHMLLTEDPQMQPVQTPFGVVTFLQIVGVCTEELHSAQQWNGQGILELLRTVPIAGGPWLITDMRRGETIFEIDPHLQERVDKGIETDGSNLSGVSAKCAWDDLPSRGEDPIRTRQLESVHLKFNQESGALIPLCLRGRLLHGRHFTYKSITGDMAITFVSTGVEGAFATEEHPYAAHGPWLQILLTEEFVEKMLEDLEDLTSPEEFKLPKEYSWPEKKLKVSILPDVVFDSPL | 3.6 | –
– | B1 | 4 | –
– | 5FAM-TSPGGSYGHLSIGTMSP (peptide, UniProt P08151 115-131, looked up, human GLI1, residues 115-131; also called 5-FAM-labelled peptide; FAM-labelled GLI1p peptide; source: synthetic peptide (Pepceuticals Ltd)) [FAM-GLI1p] | – | binding result [2]: binds
binds | SSASGSYGHLSASAISP (peptide, UniProt P10071 328-344, looked up, human GLI3, residues 328-344) [GLI3p] | – | binding result [4]: binds
binds | B2 | – | –
